These binders were tested against 109QmHtt (UniProt P42858) (assay: cell-based or functional assay).
Sequence of 109QmHtt (P42858 other isoform, or with tags, fused parts or gaps): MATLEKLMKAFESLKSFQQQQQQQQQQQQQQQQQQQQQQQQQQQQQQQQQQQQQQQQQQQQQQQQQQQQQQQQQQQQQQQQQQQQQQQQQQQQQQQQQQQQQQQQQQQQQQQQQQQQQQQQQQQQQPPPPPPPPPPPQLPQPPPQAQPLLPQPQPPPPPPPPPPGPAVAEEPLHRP

average size of the aggregates (TIRF microscopy, Neuro2a cells) [µm^2]	Binder
0.2	RRRRRRRRWDQQQQQQQQQQQQQQQ (C-terminal amide (CONH2)) [8R15Q]
3.3	RRRRRRRRWD (C-terminal amide (CONH2)) [8R]
0.3	RRRRRRRRWDQQQQQQQQQQ (C-terminal amide (CONH2)) [8R10Q]
1.7	RQQRRQQDQRQWQRQRQQR (C-terminal amide (CONH2)) [s8R10Q]

Source: patent publication US20170226169A1
